Assay results reported in US20060253917A1 (published 2006).

Columns and labels:
[1] = target: T1, OsRAP1B aa 30-180 (Oryza sativa, UniProt Q10CQ1 30-180); test: Y2H; input trait library
T1 construct: bait, Gal4 DBD fusion; also called PN20232
T1 sequence: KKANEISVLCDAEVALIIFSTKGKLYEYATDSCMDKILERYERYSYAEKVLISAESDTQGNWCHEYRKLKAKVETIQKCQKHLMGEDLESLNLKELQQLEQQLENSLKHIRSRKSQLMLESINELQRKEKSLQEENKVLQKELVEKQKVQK
In short: (§1)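 A rice prey library, either the input trait or the output trait library, was screened with a bait clone encoding a defined amino-acid fragment of a rice protein. Screening used an automated, high-throughput yeast two-hybrid assay provided by Myriad Genetics Inc. (Salt Lake City, Utah). Retrieved prey clones had their encoding sequences compared by BLAST against databases so the interacting proteins could be identified.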

[2] = target: T2, OsMADS17 aa 106-249 (Oryza sativa, UniProt Q7XUN2 106-249); test: Y2H; input trait library
T2 construct: prey, AD fusion; also called PN20914; O. sativa MADS box transcription factor MADS17
T2 sequence: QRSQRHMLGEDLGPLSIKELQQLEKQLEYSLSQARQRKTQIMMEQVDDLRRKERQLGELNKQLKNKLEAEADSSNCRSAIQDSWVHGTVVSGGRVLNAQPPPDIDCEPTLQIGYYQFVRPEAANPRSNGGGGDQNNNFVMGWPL
In short: as §1

[3] = target: T3, OsPN22834 aa 112-278 (Oryza sativa, UniProt Q01IK0 110-276); test: Y2H; input trait library
T3 construct: prey, AD fusion; also called Novel protein PN22834, similar to Oshox6, fragment
T3 sequence: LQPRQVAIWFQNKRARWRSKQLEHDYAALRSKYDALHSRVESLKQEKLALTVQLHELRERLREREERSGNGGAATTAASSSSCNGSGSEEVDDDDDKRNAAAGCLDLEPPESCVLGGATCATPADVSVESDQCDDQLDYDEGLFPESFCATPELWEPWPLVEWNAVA
In short: as §1

[4] = target: T4, OsMADS8 aa 75-248 (Oryza sativa, UniProt Q9SAR1 75-248); test: Y2H; input trait library
T4 construct: prey, AD fusion; also called PN20778
T4 sequence: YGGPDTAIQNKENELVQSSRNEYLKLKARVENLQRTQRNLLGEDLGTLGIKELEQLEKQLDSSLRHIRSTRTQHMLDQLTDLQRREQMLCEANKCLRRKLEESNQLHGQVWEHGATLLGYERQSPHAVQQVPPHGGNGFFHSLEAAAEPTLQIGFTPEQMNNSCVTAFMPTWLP
In short: as §1

[5] = target: T5, OsMADS1 aa 100-231 (Oryza sativa, UniProt A2XDY1 100-231); test: Y2H; input trait library
T5 construct: prey, AD fusion; also called PN19788
T5 sequence: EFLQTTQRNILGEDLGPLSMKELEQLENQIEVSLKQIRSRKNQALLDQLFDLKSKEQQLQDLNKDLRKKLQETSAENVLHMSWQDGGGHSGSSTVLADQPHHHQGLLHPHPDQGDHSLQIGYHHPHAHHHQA
In short: as §1

[6] = target: T6, OsMADS45 aa 96-249 (Oryza sativa, UniProt P0C5B0 96-249); test: Y2H; input trait library
T6 construct: prey, AD fusion; also called PN20231
T6 sequence: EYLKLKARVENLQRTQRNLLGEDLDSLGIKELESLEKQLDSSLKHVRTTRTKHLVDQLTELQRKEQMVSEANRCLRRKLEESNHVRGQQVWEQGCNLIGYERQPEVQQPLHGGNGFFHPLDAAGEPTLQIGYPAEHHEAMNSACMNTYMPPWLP
In short: as §1

[7] = target: T7, OsFDRMADS8 aa 53-233 (Oryza sativa, UniProt A2Z9Q7 53-233); test: Y2H; output trait library
T7 construct: prey, AD fusion; also called PN20698
T7 sequence: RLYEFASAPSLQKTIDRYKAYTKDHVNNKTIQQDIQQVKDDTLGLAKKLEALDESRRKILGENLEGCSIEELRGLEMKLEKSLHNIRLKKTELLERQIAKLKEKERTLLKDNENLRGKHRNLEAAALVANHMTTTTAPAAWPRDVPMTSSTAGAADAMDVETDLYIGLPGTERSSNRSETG
In short: as §1

[8] = target: T8, OsFDRMADS6 aa 1-186 (Oryza sativa, UniProt P0C5B1 1-186); test: Y2H; output trait library
T8 construct: prey, AD fusion; also called PN19766
T8 sequence: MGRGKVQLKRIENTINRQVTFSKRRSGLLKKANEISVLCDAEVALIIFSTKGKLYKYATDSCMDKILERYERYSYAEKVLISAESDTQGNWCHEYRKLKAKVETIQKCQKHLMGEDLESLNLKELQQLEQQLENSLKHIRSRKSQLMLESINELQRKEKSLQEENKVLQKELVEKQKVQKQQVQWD
In short: as §1

[9] = target: T9, OsMADS6 aa 116-250 (Oryza sativa, UniProt Q6EU39 116-250); test: Y2H; output trait library
T9 construct: prey, AD fusion; also called PN20233
T9 sequence: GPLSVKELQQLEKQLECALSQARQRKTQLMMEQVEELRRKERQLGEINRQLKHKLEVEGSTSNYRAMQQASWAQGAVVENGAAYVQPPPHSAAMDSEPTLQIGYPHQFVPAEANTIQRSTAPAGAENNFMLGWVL
In short: as §1

[10] = target: T10, OsMADS1 aa 95-257 (Oryza sativa, UniProt A2XDY1 95-257); test: Y2H; output trait library
T10 construct: prey, AD fusion; also called PN19788
T10 sequence: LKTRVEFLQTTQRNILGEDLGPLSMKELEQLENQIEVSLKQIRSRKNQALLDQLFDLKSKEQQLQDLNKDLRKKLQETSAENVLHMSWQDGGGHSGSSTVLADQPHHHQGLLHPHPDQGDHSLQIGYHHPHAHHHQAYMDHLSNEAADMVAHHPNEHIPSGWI
In short: as §1

[11] = target: T11, OsMADS8 aa 107-248 (Oryza sativa, UniProt Q9SAR1 107-248); test: Y2H; output trait library
T11 construct: prey, AD fusion; also called PN20778; O. sativa MADS box protein MADS8
T11 sequence: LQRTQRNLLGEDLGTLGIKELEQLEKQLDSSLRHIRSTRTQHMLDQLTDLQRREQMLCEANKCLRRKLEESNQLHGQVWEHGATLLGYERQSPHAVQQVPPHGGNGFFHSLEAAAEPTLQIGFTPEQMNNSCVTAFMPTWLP
In short: as §1

[12] = target: T12, OsMADS45 aa 75-249 (Oryza sativa, UniProt P0C5B0 75-249); test: Y2H; output trait library
T12 construct: prey, AD fusion; also called PN20231
T12 sequence: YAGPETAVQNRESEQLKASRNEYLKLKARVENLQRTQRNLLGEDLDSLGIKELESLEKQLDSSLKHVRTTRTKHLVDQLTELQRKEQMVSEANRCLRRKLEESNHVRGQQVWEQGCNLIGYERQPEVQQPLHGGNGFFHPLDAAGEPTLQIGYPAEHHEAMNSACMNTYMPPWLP
In short: as §1

[13] = target: T13, OsMADS5 aa 109-225 (Oryza sativa, UniProt A2Y9P0 109-225); test: Y2H; output trait library
T13 construct: prey, AD fusion; also called PN20770
T13 sequence: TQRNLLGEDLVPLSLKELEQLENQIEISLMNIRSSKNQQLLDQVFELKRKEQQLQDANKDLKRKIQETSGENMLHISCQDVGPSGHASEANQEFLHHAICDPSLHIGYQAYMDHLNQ
In short: as §1

[14] = target: T14, OsBAA81880 aa 24-203 (Oryza sativa, UniProt Q9XJ66 24-203); test: Y2H; output trait library
T14 construct: prey, AD fusion; also called PN20837
T14 sequence (Q9XJ66 24-203): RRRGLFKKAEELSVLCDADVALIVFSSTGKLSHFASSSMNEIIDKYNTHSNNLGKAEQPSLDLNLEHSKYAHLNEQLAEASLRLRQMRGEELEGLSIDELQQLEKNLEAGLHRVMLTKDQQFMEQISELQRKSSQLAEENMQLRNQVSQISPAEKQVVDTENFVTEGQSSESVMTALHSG
In short: as §1

[15] = target: T15, OsMADS45 aa 69-249 (Oryza sativa, UniProt P0C5B0 69-249); test: Y2H; output trait library
T15 construct: prey, AD fusion; also called PN20231
T15 sequence: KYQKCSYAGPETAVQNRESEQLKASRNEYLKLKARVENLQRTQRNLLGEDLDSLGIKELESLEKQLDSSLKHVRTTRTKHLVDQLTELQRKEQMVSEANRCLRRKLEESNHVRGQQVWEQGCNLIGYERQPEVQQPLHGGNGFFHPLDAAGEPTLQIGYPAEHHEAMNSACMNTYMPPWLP
In short: as §1

[16] = target: T16, OsMADS8 aa 79-248 (Oryza sativa, UniProt Q9SAR1 79-248); test: Y2H; output trait library
T16 construct: prey, AD fusion; also called PN20778
T16 sequence: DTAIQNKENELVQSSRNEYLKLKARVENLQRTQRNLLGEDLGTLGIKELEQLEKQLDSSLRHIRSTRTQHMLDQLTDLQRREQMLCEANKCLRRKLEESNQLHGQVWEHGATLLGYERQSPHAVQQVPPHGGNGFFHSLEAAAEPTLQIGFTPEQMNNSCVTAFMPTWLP
In short: as §1

[17] = target: T17, OsMADS1 aa 73-239 (Oryza sativa, UniProt A2XDY1 73-239); test: Y2H; output trait library
T17 construct: prey, AD fusion; also called PN19788
T17 sequence: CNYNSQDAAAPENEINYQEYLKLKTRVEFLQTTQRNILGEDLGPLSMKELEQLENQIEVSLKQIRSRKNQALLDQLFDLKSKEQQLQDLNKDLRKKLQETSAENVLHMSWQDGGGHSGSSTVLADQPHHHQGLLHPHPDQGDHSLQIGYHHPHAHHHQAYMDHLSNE
In short: as §1

[18] = target: T18, OsBAA81880 aa 2-168 (Oryza sativa, UniProt Q9XJ66 2-168); test: Y2H; output trait library
T18 construct: prey, AD fusion; also called PN20837; O. sativa MADS box-like protein
T18 sequence (Q9XJ66 2-168): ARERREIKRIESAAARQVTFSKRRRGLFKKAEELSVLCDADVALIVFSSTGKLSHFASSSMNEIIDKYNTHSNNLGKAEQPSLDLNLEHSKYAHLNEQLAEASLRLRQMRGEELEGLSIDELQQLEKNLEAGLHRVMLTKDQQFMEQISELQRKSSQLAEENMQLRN
In short: as §1

[19] = target: T19, OsMADS5 aa 108-225 (Oryza sativa, UniProt A2Y9P0 108-225); test: Y2H; output trait library
T19 construct: prey, AD fusion; also called PN20770
T19 sequence: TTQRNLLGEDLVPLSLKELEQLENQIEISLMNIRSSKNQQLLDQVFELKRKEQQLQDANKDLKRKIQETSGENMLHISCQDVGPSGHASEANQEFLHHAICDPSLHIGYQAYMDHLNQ
In short: as §1

[20] = target: T20, OsMADS45 aa 98-249 (Oryza sativa, UniProt P0C5B0 98-249); test: Y2H; output trait library
T20 construct: prey, AD fusion; also called PN20231
T20 sequence: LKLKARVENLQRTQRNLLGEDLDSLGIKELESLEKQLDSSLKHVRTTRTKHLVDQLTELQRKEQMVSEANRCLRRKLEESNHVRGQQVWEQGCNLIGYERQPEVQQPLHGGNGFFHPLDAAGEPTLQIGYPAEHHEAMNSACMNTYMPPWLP
In short: as §1

Measured: binding result

B1: OsMADS5 aa 106-225 (other)
chain: LQTTQRNLLGEDLVPLSLKELEQLENQIEISLMNIRSSKNQQLLDQVFELKRKEQQLQDANKDLKRKIQETSGENMLHISCQDVGPSGHASEANQEFLHHAICDPSLHIGYQAYMDHLNQ
notes: prey, AD fusion; also called PN20770
binds: [1]

B2: OsRAP1B aa 1-247 (other)
chain: MGRGKVQLKRIENKINRQVTFSKRRSGLLKKANEISVLCDAEVALIIFSTKGKLYEYATDSCMDKILERYERYSYAEKVLISAESDTQGNWCHEYRKLKAKVETIQKCQKHLMGEDLESLNLKELQQLEQQLENSLKHIRSRKSQLMLESINELQRKEKSLQEENKVLQKELVEKQKVQKQQLQWDQTQPQTISSSSSFMMREALPTTNISNYPAAAGERIEDVPAGQPQHVRIGLPPWMLSHING
notes: bait, Gal4 DBD fusion; also called PN20232
binds: [2] | [3] | [4] | [5] | [6] | [7] | [8] | [9] | [10] | [11] | [12] | [13]

B3: OsRAP1B aa 125-235 (other)
chain: LQQLEQQLENSLKHIRSRKSQLMLESINELQRKEKSLQEENKVLQKELVEKQKVQKQQLQWDQTQPQTISSSSSFMMREALPTTNISNYPAAAGERIEDVPAGQPQHVRIG
notes: as for B2
binds: [14] | [15] | [16] | [17] | [18] | [19] | [20]
